Measured values as given in patent US20240287172A1 (SCIRHOM, published 2024).
Substitutions are numbered along the chain they refer to.

B1: antibody 50 (antibody, V domains shown)
VH: QVQLQQSGAELVRPGASVKVSCKASGYAFSNYLIEWVKQRPGQGLEWIGVINPGSGFTKYNEKFKGKATLTADKSSSTAYMQLSSLTSEDSAVYFCARGLYRAMDYWGQGTSVTVSS
VL: DIQMTQSPASQSASLGESVTITCLASQTIGTWLAWYQQKPGKSPQLLIYAAASLADGVPSRFSGGGSGTKFSFKISSLQAEDFVNYYCQQIYSTPYTFGGGTKLEIK
notes: mouse IgG, kappa light chain; also called clone #50; purified antibody 50
B2: antibody 3 (antibody, V domains shown)
VH: QVTLKESGPGILQPSQTLSLTCSFSGFSLTTFAMGIGWVRQPSGKGLEWLAHIWWDGEKYNNPVLKSRLTISKDTSKNQVFLRIANVDTPDTATYYCARISSIYYIIDNWGQGTSVTVSS
VL: DIVLTQSPATLSVTPGHSVSLSCRASQSISNNLHWYQKKSHESPRLLIKYVSQSISGIPSRFSGSGSGTDFTLSINSVETEDFGMYFCQQSYNWPLTFGAGTKLELK
notes: mouse IgG, kappa light chain; also called clone #3; purified antibody 3

What was measured:
hiR2-FL-H505A-T7 = biological target: T1, hiR2-FL-H505A-T7 (human, UniProt Q6PJF5 1-856); assay: FACS on MEF-DKO cells expressing the variant, 3 µg/ml antibody
T1 sequence: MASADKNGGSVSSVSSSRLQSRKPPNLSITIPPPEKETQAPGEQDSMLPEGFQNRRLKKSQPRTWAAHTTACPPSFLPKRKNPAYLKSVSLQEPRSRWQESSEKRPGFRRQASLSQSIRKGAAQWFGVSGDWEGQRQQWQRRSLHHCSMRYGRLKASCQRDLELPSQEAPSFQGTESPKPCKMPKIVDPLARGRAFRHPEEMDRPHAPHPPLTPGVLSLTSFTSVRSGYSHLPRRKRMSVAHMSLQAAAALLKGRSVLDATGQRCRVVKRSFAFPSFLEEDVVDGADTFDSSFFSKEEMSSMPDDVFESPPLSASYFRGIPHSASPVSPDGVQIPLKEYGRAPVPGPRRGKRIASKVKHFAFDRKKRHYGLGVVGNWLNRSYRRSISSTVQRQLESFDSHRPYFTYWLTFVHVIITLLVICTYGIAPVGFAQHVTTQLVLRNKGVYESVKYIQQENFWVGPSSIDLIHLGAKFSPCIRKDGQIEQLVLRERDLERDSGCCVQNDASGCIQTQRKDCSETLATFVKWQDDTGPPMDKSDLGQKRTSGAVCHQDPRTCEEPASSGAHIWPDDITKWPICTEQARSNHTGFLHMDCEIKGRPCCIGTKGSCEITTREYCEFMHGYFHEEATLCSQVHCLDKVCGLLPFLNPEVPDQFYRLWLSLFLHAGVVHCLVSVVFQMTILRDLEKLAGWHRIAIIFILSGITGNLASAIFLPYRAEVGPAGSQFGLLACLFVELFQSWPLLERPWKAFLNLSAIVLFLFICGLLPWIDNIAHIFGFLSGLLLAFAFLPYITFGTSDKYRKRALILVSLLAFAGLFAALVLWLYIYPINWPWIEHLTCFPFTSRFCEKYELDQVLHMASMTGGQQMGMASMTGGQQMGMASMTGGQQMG
How it was run: (§1)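 Cells were stained with purified antibody at 3 μg/ml in FACS buffer for 1 hour on ice, with buffer-only controls. Bound antibody was detected with PE-conjugated goat anti-mouse IgG F(ab′)2 at 1:100, 1 hour on ice in the dark, followed by flow cytometry.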

hiR2-FL-N584A-T7 = biological target: T2, hiR2-FL-N584A-T7 (human, UniProt Q6PJF5 1-856); assay: as above
T2 sequence: T1 sequence with A505H, N584A
How it was run: as §1

Binder	loss of binding vs wild type (hiR2-FL-H505A-T7) [%]	loss of binding vs wild type (hiR2-FL-N584A-T7) [%]
B1	≥ 30	–
B2	–	≥ 30
